This note sets out measurements from patent US20040018971A1 (published 2004).

Assay [1] deals with T1, HLA-A*0301 (purified HLA class I molecule) (human).
T1 construct: also called HLA-A3
Description: competition with 125I-labelled probe peptide for purified HLA-A*0301, gel filtration. On the technique in general: Size exclusion chromatography separates by hydrodynamic size, large species first.

Assay [2] addresses HLA-A*0301 (purified HLA class I molecule) (human). The assay is described as follows: competition with 125I-labelled probe peptide on purified HLA-A*0301, gel filtration.
Assay [3] has as its target HLA-B*5101 (human). Description: competition with 125I probe peptide, purified HLA.
Assay [4] deals with HLA-B*3501 (human). Description: competition with 125I probe peptide, purified HLA.
Assay [5] has as its target HLA-B*5401 (human). The assay is described as follows: competition with 125I probe peptide, purified HLA.
Assay [6] addresses HLA-B*5301 (human). Description: competition with 125I probe peptide, purified HLA.
The target of assay [7] is HLA-B*0702 (human). The assay is described as follows: competition with 125I probe peptide, purified HLA.
Assay [8] concerns the target HLA-B*5301 (human). The assay is described as follows: competition vs 125I-labelled probe peptide, purified HLA, gel filtration.
The target in assay [9] is HLA-B*5101 (human). The assay is described as above.
Assay [10] addresses HLA-B*3501 (human). The assay is described as above.
Assay [11] has as its target HLA-B*0702 (human). The assay is described as above.
In assay [12] the target is HLA-B*5401 (human). Described as above.

As usually defined, the IC50 is the concentration needed to halve the response being measured.

As to AMPNQAQMR (also called Her2/neu.705 9-mer) [HER2/neu peptide, position 705, 9 amino acids (AMPNQAQMR)], in assay [1], the relative binding ratio was 0.0004 ratio (IC50 of standard peptide / IC50 of test peptide).
The same measure, in the same setting: in the case of CVTACPYNY (also called Her2/neu.295 9-mer) [HER2/neu peptide, position 295, 9 amino acids (CVTACPYNY)] it was 0.0002 ratio (IC50 of standard peptide / IC50 of test peptide).

B1: HER2/NEU A03 motif peptide, position 166, 10 amino acids (peptide)
peptide: TILWKDIFHK
notes: Synthetic peptide; also called Her2/neu.166
As to B1, the “relative binding ratio (IC50 of standard peptide / IC50 of test peptide)” value in assay [2] worked out at 0.043 ratio.
In the case of CSPMCKGSR (also called Her2/neu.195 9-mer) [HER2/neu peptide, position 195, 9 amino acids (CSPMCKGSR)], in assay [1], the relative binding ratio is -0.0008 ratio (IC50 of standard peptide / IC50 of test peptide).
Same read-out and setting: in the case of CVARCPSGVK (also called Her2/neu.596 10-mer) [HER2/neu peptide, position 596, 10 amino acids (CVARCPSGVK)] it was 0.022 ratio (IC50 of standard peptide / IC50 of test peptide).
As for FPLNNTTPI (analog peptide) [Her2/neu.121.F1I9], the half-maximal inhibitory concentration (IC50) in [3] was determined as 13 nM; in assay [4], 200 nM; in assay [5], 1.6 nM; in assay [6], 52 nM; in assay [7] it was 1.6 nM.
FPLNNTTPV (analog peptide) [Her2/neu.121.F1]: the half-maximal inhibitory concentration (IC50) in [3] amounted to 7.1 nM; in assay [4] it was 40 nM; in assay [5] it was 1.1 nM; in [6], 1070 nM; in assay [7], 0.2 nM.

B2: HER2/NEU A03 motif peptide, position 402, 10 amino acids (peptide)
peptide: TLEEITGYLY
notes: Synthetic peptide; also called Her2/neu.402
As to B2, in assay [2], the “relative binding ratio (IC50 of standard peptide / IC50 of test peptide)” value amounted to 0.0001 ratio.
Same read-out and setting: in the case of RVLQGLPREY (Synthetic peptide) [HER2/NEU A03 motif peptide, position 545, 10 amino acids] it was 0.035 ratio.
As for CAGGCARCK (also called Her2/neu.220 9-mer) [HER2/neu peptide, position 220, 9 amino acids (CAGGCARCK)], the relative binding ratio in assay [1] is -0.0002 ratio (IC50 of standard peptide / IC50 of test peptide).
In the case of TLIDTNRSR (Synthetic peptide) [HER2/NEU A03 motif peptide, position 182, 9 amino acids], in assay [2], the “relative binding ratio (IC50 of standard peptide / IC50 of test peptide)” value stood at 0.0004 ratio.
Take CAAGCTGPK (also called Her2/neu.240 9-mer) [HER2/neu peptide, position 240, 9 amino acids (CAAGCTGPK)]: the relative binding ratio in assay [1] was 0.0021 ratio (IC50 of standard peptide / IC50 of test peptide).
In the case of RGTQLFEDNY (Synthetic peptide) [HER2/NEU A03 motif peptide, position 103, 10 amino acids], in assay [2], the “relative binding ratio (IC50 of standard peptide / IC50 of test peptide)” value amounted to 0.0003 ratio.
As for ALTLIDTNR (also called Her2/neu.180 9-mer) [HER2/neu peptide, position 180, 9 amino acids (ALTLIDTNR)], in assay [1], the relative binding ratio was 0.0004 ratio (IC50 of standard peptide / IC50 of test peptide).
Turning to FPCARVCYGL (analog peptide) [Her2/neu.336.F1], the IC50 in assay [3] was found to be 1000 nM; in [4] it was 450 nM; in assay [5] it was 36 nM; in [6], 1690 nM; in assay [7] it was 190 nM.
On to RILKETELRK (Synthetic peptide) [HER2/NEU A03 motif peptide, position 713, 10 amino acids], for which the “relative binding ratio (IC50 of standard peptide / IC50 of test peptide)” value in assay [2] was 0.057 ratio.
For the molecule FPDLSYMPI (analog peptide) [Her2/neu.605.F1], the 50% inhibitory concentration (IC50) in assay [3] came out at 10 nM; in assay [4], 167 nM; in [5], 31 nM; in assay [6] it was 72 nM; in assay [7], 22 nM.

B3: Her2/neu.921.F1I11 (peptide)
peptide: FPYDGIPAREI
notes: 11-mer B7 supermotif analog of the HER2/neu peptide starting at position 921
For B3, the IC50 in assay [8] amounted to 465 nM; in assay [9], 50 nM; in [10] it was 2880 nM; in assay [11] it was 141 nM; in assay [12] it was 15 nM.
Regarding RILKETELR (Synthetic peptide) [HER2/NEU A03 motif peptide, position 713, 9 amino acids], the “relative binding ratio (IC50 of standard peptide / IC50 of test peptide)” value in [2] turned out to be 0.0007 ratio.
Still for that read-out and setting: in the case of SVFQNLQVIR (Synthetic peptide) [HER2/NEU A03 motif peptide, position 423, 10 amino acids] it was 0.017 ratio.

B4: Her2/neu.1155.F1 (peptide)
peptide: FPLPAARPA
notes: 9-mer analog of the HER2/neu peptide starting at position 1155
Turning to B4, the half-inhibitory concentration (IC50) stood at 1900 nM in [9], 277 nM in [10], 34 nM in assay [11] and 1.5 nM in [12].
For the molecule RLVHRDLAAR (Synthetic peptide) [HER2/NEU A03 motif peptide, position 840, 10 amino acids], the “relative binding ratio (IC50 of standard peptide / IC50 of test peptide)” value in assay [2] was 0.18 ratio.
Consider CSKPCARVCY (also called Her2/neu.334 10-mer) [HER2/neu peptide, position 334, 10 amino acids (CSKPCARVCY)], for which, in [1], the relative binding ratio was 0.0003 ratio (IC50 of standard peptide / IC50 of test peptide).
For the molecule RLLDIDETEY (Synthetic peptide) [HER2/NEU A03 motif peptide, position 868, 10 amino acids], the “relative binding ratio (IC50 of standard peptide / IC50 of test peptide)” value in assay [2] was 0.0017 ratio.
Take ASPLDSTFY [HER2/neu peptide, position 997, 9 amino acids (ASPLDSTFY)]: the relative binding ratio in [1] is 0.0002 ratio (IC50 of standard peptide / IC50 of test peptide).
For FPHQALLHTA (analog peptide) [Her2/neu.488.F1], the half-inhibitory concentration (IC50) came out at 4230 nM in assay [3], 379 nM in assay [4], 1.3 nM in assay [5] and 393 nM in assay [7].
As to FPHQALLHTI (analog peptide) [Her2/neu.488.F1I10], the IC50 is 19 nM in assay [3]; 655 nM in [4]; 4 nM in assay [5]; 42 nM in assay [6]; 86 nM in [7].
Turning to RMARDPQRF (Synthetic peptide) [HER2/NEU A03 motif peptide, position 978, 9 amino acids], in assay [2], the “relative binding ratio (IC50 of standard peptide / IC50 of test peptide)” value amounted to 0.0001 ratio.

B5: Her2/neu.966.F1I11 (peptide)
peptide: FPRFRELVSEI
notes: 11-mer analog of the HER2/neu peptide starting at position 966
As for B5, the IC50 was 167 nM in assay [9], 240 nM in assay [10], 229 nM in assay [11] and 28 nM in assay [12].
As to FPTNASLSF (analog peptide) [Her2/neu.65.F1 (9-mer)], the IC50 in assay [3] worked out at 85 nM; in assay [4] it was 7.9 nM; in [5], 556 nM; in assay [6], 6.2 nM; in [7], 1.1 nM.
The corresponding values for FPTNASLSI (analog peptide) [Her2/neu.65.F1I9] are 8.7 nM, 300 nM, 2.8 nM, 14 nM and 4.6 nM.
As to CVNCSQFLR (also called Her2/neu.528 9-mer) [HER2/neu peptide, position 528, 9 amino acids (CVNCSQFLR)], the relative binding ratio in assay [1] is 0.0015 ratio (IC50 of standard peptide / IC50 of test peptide).
As to SMPNPEGRY (Synthetic peptide) [HER2/NEU A03 motif peptide, position 281, 9 amino acids], the “relative binding ratio (IC50 of standard peptide / IC50 of test peptide)” value in assay [2] is 0.0002 ratio.
On to AFSPAFDNLY (also called Her2/neu.1212 10-mer) [HER2/neu peptide, position 1212, 10 amino acids (AFSPAFDNLY)], for which the relative binding ratio in [1] was 0.0003 ratio (IC50 of standard peptide / IC50 of test peptide).
In the case of TIDVYMIMVK (Synthetic peptide) [HER2/NEU A03 motif peptide, position 948, 10 amino acids], the “relative binding ratio (IC50 of standard peptide / IC50 of test peptide)” value in assay [2] was determined as 0.013 ratio.
Still for that read-out and setting: the figure for SSEDCQSLTR (Synthetic peptide) [HER2/NEU A03 motif peptide, position 208, 10 amino acids] is -0.0002 ratio.
As to ALESILRRR (also called Her2/neu.890 9-mer) [HER2/neu peptide, position 890, 9 amino acids (ALESILRRR)], the relative binding ratio in assay [1] was 0.0013 ratio (IC50 of standard peptide / IC50 of test peptide).
For MPNPEGRYTI (analog peptide) [Her2/neu.282.I10], the concentration for half-maximal inhibition (IC50) came to 13 nM in [3]; 111 nM in [4]; 46 nM in assay [5]; 9.3 nM in assay [6]; 34 nM in [7].
For FPNPEGRYTI (analog peptide) [Her2/neu.282.F1], in that order: 9.3 nM, 24 nM, 3.2 nM, 6.6 nM and 324 nM.

B6: Her2/neu.1157.F1 (peptide)
peptide: FPAARPAGATL
notes: 11-mer analog of the HER2/neu peptide starting at position 1157
As for B6, the IC50 in assay [8] is 2910 nM; in [9], 239 nM; in assay [10], 360 nM; in [11], 3.9 nM.
As to FPTNASLSFI (analog peptide) [Her2/neu.65.F1I10], the concentration for half-maximal inhibition (IC50) came out at 23 nM in assay [3]; 424 nM in assay [4]; 53 nM in assay [5]; 85 nM in assay [6]; 120 nM in [7].
Regarding CLLDHVRENR (also called Her2/neu.805 10-mer) [HER2/neu peptide, position 805, 10 amino acids (CLLDHVRENR)], the relative binding ratio in assay [1] was 0.0003 ratio (IC50 of standard peptide / IC50 of test peptide).
For ASCVTACPY [HER2/neu peptide, position 293, 9 amino acids (ASCVTACPY)], in assay [1], the relative binding ratio was 0.0008 ratio (IC50 of standard peptide / IC50 of test peptide).
Consider FPSGVKPDI (analog peptide) [Her2/neu.600.F1I9], for which the half-maximal inhibitory concentration (IC50) in assay [3] was 204 nM; in [4], 9000 nM; in [5], 44 nM; in assay [6], 930 nM; in [7], 6.3 nM.
For CTGTDMKLR (also called Her2/neu.26 9-mer) [HER2/neu peptide, position 26, 9 amino acids (CTGTDMKLR)], in assay [1], the relative binding ratio was 0.0002 ratio (IC50 of standard peptide / IC50 of test peptide).
